Experimental data taken from the nanobody polyreactivity screen of Harvey et al. (2022).

Assay: yeast display, Sf9 membrane polyspecificity reagent, FACS + sequencing; frameworks hold sequencing errors
Outline: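 In a synthetic yeast display library (Saccharomyces cerevisiae BJ5465), nanobody expression was induced with galactose for 36–48 hours. FACS gates were set low and high (top ~1%) using anti-HA fluorescence for expression and streptavidin fluorescence for binding of the Sf9 membrane reagent. Each polyreactivity label is drawn from the gate of origin.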

Row | Sequence | polyreactivity (PSR sort gate)
1 | KVQLVETGGGLVQAGGSLRLSCAASGSILIYNAMGWYRQAPGKERELVAGISRRGASTYYADSVKGRFTNSRDNAKKTVYLQMKSLKPEDTAVYYCAALGKYIVAWSGDFWGQGTQVTVSS | low polyreactivity
2 | QVQLVESGGGLVQAGGSLRIICAASGSIFARNAMGWYRQAPGKERELVASITWSGASTYDADSVKGRFTISRDNAMNTVYLQMNSLKPEDTAVYYCAATDQILSLDYSSYEYLGQGTQVTVSS | low polyreactivity
3 | QVQLVESGGGIVQAGGSLRLSCAASGRIFSEYAMGWYRQAPGKERELVARITSSGGSTSYADSVKGRFTISRDNAKNTVYLQMNSLNPVDTAVYYCAGDGVWRRFYYLHYYWGQGTQVTVSS | high polyreactivity
4 | QVQLVESGGGLVQAGGSLRLSCAASGRTFRGNAMGWYRQAPGKERELVAAGGSTYYADSVKGRFTISRDNAKNTVYLQINSLKPEDTAVYYCAAALGFSRYSWFCYGYWGQGTQVTGSS | low polyreactivity
5 | QVQLVESGGGLVQAGGSLRLSCAASGSTFYRYAMGWYRQAPGKERELVAAITWSGGSTYYADSVKGRFTISRDNAKNTVYLQMNSLKPEDTAVYYCNAVARYYYKDQTIIHSPREDYWGQGTQVTVSS | low polyreactivity
6 | QVQLVESGGGLVQAGGSLRLSCAASGIIFSVYAMGWYRQAPGTERELVAAISGSGGSTYYADSVKGRFTISRDNAKNTVYLQMNSLKPEDTAVYYCAARKKWSIRSDYWGQGTQVTVSS | high polyreactivity
7 | QVQLVESGGGLVQAGGSLRLSCAASGFIFWSYAMVWYRQAPGKERELVAAISHGGSTNYADSVKGRFTISRDNSKNTVYLQMNSLKPEDTAVYYCAKDELYIPGVWPYYEYDYWGQGTQVTVSS | low polyreactivity
8 | QVQLVESGGGLVQAGGSLRLSCAASGRIFSTNAMGWYRQAPGKERELVARINSGGGSTYADSVKGRFTISRDNAKNTVYLQMNSLKPEDTAVYYCAASRRFQWRAYGYWGQGTQVTVSS | high polyreactivity
9 | QVQLVESGGGLVQAGGSLRLSCAASGLIFSTYAMGWYRQAPGKERELVAAITNSGGSTYYADSVKGRFTISRDNAKNTDYLQMNSLKPEDTAVYYCARRRSYRDNYWGQGTQVTVSS | high polyreactivity
10 | QVQLVESGGGLVQAGGSLRLSCAASGSTINYYAMGWYRQAPGKERELVAAISRRSGSTYYADSVKGRFTISRDNAKNTVYLQMNSLKPEDTAVYYCAAGYGGTFNWGQGTQVTVSS | high polyreactivity
11 | QVQLVQSGGGLVQAGGSLRLSCAASGITFWYYAMGWYRQAPGKERELVAAITGGSTYYADSVKGRFTISRDNAKNTVYLQMNSLKPEDTAVYYCNADSLFEYLDYDYWGQGTQVTVSS | low polyreactivity
12 | QVQLVESGGGLVQAGGSLRLSCAASGSIFLRNAMGWYRQAPGKERELVASITWNGASTSYADSVKGRFTISRDNAKNTVYLQMNSLKPEDTAVYYCAAVTVQDSNLKYGYWGQGTQLTVSS | low polyreactivity
13 | QVQLVESGGGLVQAGGSLRLSCAASGSIFNTYVMGWYTQAPGKERELVAAITSSGGRTYYADSVKGRFTISRDNAKNTVYLQMNSLNPEDTAVYYCNTAQRWVGRNDYWGQGTQVTVSS | high polyreactivity
14 | QVQLVESGGGLVQAGGSLRLSCAASGFTLWLNAMGWSRQAPGKERELVAAITTSDDGTYYADSVNGRFTISRDTAKNTVYLQMNSLKPEDTAVYYCAADYYSVLYDYWGQGTQVTVSS | low polyreactivity
15 | QVQLVESGGGLVQAGGSLRLSCAASGSILSAYDMGLYRKAPGKDRELVAAIHSSGGSTYYADSVKGRFTISRDNAKNTVYLQMNSLKPEDTAVYYCAATSLAGYYQFDYWGQGTQVTVSS | low polyreactivity
16 | QGQLVESGGGLVQAGGSLRLSSAASGSTFVGNAMGWYRQAPGKEREMVATISNSGGRTYYADSVKGRFTISRDNAKNTVYLQMTSLKPEDTAVYDCAADHPAFGPGYSFDYWGQGTQVTLSS | low polyreactivity
17 | QVQLVESGGGLVQAGGSLRLSCAASGFIFVSKAMGWSRQAPGKERELVAAITTGGSTNYADSVKGRFTISRDNAKYTVYLLMNSLKPEDTAVYYCAADGRYSTYIYLHDYWGQGTQVTVSS | low polyreactivity
18 | QVQLVESGGGSVQAGGSLRLSCAASGFTIRTYAMGWYRQAPGKESELVAAITSSGSSTYYAYSVKGRFTISRDNAKNTVYLQMNSLKPEDTAVYYCAADAPRSYRFGYWGQGTQVTVSS | high polyreactivity
19 | QVQLVESGGGLVQAGGSLRLSCAASGRTFQWYTMGWYRQAPGKERELVAAISLSGTSTYYADSVKGRFTISRDNAKNTVYLQMNSLNPEDTAVYYCAAEDIGRYYRLDYWGQGTQVTVSS | low polyreactivity
20 | QVQLVESGGGLVQAGGSLRLSCAASGRIFGTNAMGWYRQAPRKERELVADITSGGSTNYADSVKGRFTISRDNAKNTVYLQMNSLKPEDTAVYYCAADVIGDLRWYRDEYWGQVTQVTVSS | low polyreactivity
21 | QVQLVESGGGLVQAGGSLRLSCAASGRIFQYNAMGWYRQAPGKEREFVAAIRRGGGSTYYADSVKGRFTISRDNAKNTVYLQMNSLKPEDTAVYYCAARRKRVSFYPEYDYWGQGTQVTVSS | low polyreactivity
22 | QVQLVESGGGLVQAGGSLSLSCAASGSTFAYYAMGWSRQAPGKERELVAGITWTGGSTYYADSVKGRFTISRDNAKNTVYLQMNSLKPEDTAVYYCAVTYPYGYEYDHWGQGSQVTVSS | low polyreactivity

Row | Sequence | polyreactivity (PSR sort gate)
23 | QVQLVESGGGLVQAGGSLRLSCAASGFTFRTYGMGWYSQAPGKERELVAAISRSSATTYYADSVKGRFTISRDNAKTTVYLQINSLKPEDTAVYYCNAGDLGRRWGMDYSGQGTQVTVSS | low polyreactivity
24 | QVQLVESGGGLVQAGGSLRLSGDASGRIFRLYAMGWYRQAPGKEREFVAAISRSGGRTYYADSVKGRFTISRDNAKNTVYLQMNSLKPEDTAVYYCAAVYRQCGDYYSRDYYWGQGTQVTVSS | high polyreactivity
25 | QVQLVESGGGLFQAGGSLRLSCAASGRIFQHNTMGWYRQAPGKEREFVAAIRRSGGSTYYADSVKGRFTISRDNAKNTVYLQMNSLKPEDTAVFYCAARDYPTGTRRWGGGDSWGQGTQVTVSS | low polyreactivity
26 | QVQLVESGGGLVQAGGSLRLSCAASGFTFNDYAMGWYRQAPGKERELVAAIDWSGGRTYYADSVKGRFTISRDNAKNTVYLQMNSLKPDDTAVYYCAAVLYSRLYWYRLDYWGQGTQVTVSS | low polyreactivity
27 | QDQLVESGGGLVQAGGSLRISCAASGSIFTYNAMGWYREAPGKERELVAAINTSGSTNYADSVKGRFTISRDNAKNTVYLQKNSLKPEDTAVYYCAADYPYWRRPYSRYGYWGQGTQVTVSS | low polyreactivity
28 | QVQLVESGGGLVQAGGSLRLSCAASGRIFTTYTMGWYRQAPGKERELVAAISKRGGSTYYADSVKGRFTISRDNAKNTVYLQMNSLKPEDTAVYYCAAVGGRFFAPYIWSVDSYDYWGQGTQVTVSS | high polyreactivity
29 | QVQLVESGGGLVQAGGSLRLSCAASGSTFYGYAMGWYRQAPGKERELVAAISSSATRTYYADSVKGRFTISRDNAKNTVYLQMNSLKPEDTAVYYCAAVSTLLYYHYYTRDYWGQGTQVTVSS | high polyreactivity
30 | QVQLVESGGGLVQAGGSLRLSCAASGRTFGYNAMGWYSQAPGKERELVAAISWSGGRTYYADSVKGRFTISRDNAKNTVYLQMNSLKPEDTAVYYCAALPSVTNRYYIYGYWGQGTQVTGSS | high polyreactivity
31 | QVQLVESGGGLVQAGGSLRLSCAASGFTLRKYSMGWYRQAPGKEREFVATISSRAASTYYADSVKGRFTISRDNAKNTVYLQMISLKPEDTAVYYCNKVSPYRGYYWGQGTQVTVSS | high polyreactivity
32 | QVQLVESGGGLDQAGGSLRLTCAASGSIFEIYDRGWYRQAPGKEMELVASIRTSGGSTFYADSVKGRFTISRDNAKNTVYLQMNSLKPEDTAVYYCAAGDVPRRIYLVYVGYLLDYWGQGTQVTVSS | low polyreactivity
33 | QVQLVESGGGLLQAGGSLRVSCAASGSIFHENAMGWYRQAPGKERELVAAIDQTGSTYADSVKGRFTISRDNAKNTVYLQMNSLKPEDTAVYYCAKGDVSLDYPSLEFDYWGQGSQVTVSS | low polyreactivity
34 | QVQLVESGGGLVQAGGSLRLSCAASGSIFLRYDMGWYRQAPGKERELVAAISRGGSTYYADSVKGRFTISRDNAKNTVYLQLNSLKPEDTAVYSCAARRFGREHGYWGQGTQVTVSS | high polyreactivity
35 | QVQLVESGGGLVQAGGSLRLSCAASGFIFARYAMGWYRQAPGKERELVATISKSGGRTYYADSVKGRFTISRDNAKNTVYLQMNSLKPEDTAVYYCATRYSTTSPGDDYWGQGTQVTVSS | high polyreactivity
36 | QVQLVESGGGLVQAGGSLRLSCAASGRTFSPYDMGWSRQAPGKERELVAAISFSDTITYYADSVKGRFTISRDNAKNTVYLQMNSLKPEDTAVYYCAADAGGYYEWELYDYWGQGTQVTVSS | low polyreactivity
37 | QVQLVESGGGLVQAGGSLRLSCAASGNTFRSYVMGWYRQAPGKERELVADISSGDGTNYADSVKGRFTISRDNAKNTVYLQMNSLKPEDTAVYYCAKDVYNFRTTHSYFTGYDSWGQGTQVTVSS | low polyreactivity
38 | QVQLVESGGGLVQAGGSLRLSCAASGSTFRSYAMGWYRQAPGKERESVARISYRTGSTYYADSVKGRFTISRDNAKNTVYLQMNSLEPEDTAVYYCATRGSYVGGLYDYWGQGTQVTVSS | high polyreactivity
39 | QVQLVESGGGFVQAGGSLRLSCAACGSTFATYGMGWYRQAPGKERELVADITSGGSTYYADSVKGRFTISRDNAKNTVYLQMNSLKPEDTAVYSCNAPYGGPYYIQYDYWGQGTQVTVSS | low polyreactivity
40 | QVQLVESGGGLVQAGGSLRLSCAASGSTFRTNAMGWYRQAPGKERELVAAITYRAGNTYYADSVKGRFTISRDNAKNTVYLQMNSLKPEDTAVYYCNAESLSFPARGRAYRYYYWGQGTQVTVSS | high polyreactivity
41 | QVQLVESGGGLVQAGGSLRLSCAASGFTFIRYAMGWYRQAPGKERELVAAIRGTGTSTYYADSVKGRFTISRDNAKNTVYLQMNSLKPEDTAVYYCNKVSGRSPYTRYDYWGQGTQVTVSS | low polyreactivity
42 | QVQLVESGGGLVQAGGSLRLSCASSGSTFLINAMGWYRQAPGKERELVAAISRDGSTNYADSVKGRFTISRDNAKNTVYLQMHSLIPEDTAVYSCAAVPGISVGRQPGYDYDYWGQGTQVTVSS | low polyreactivity
43 | QVQLQESGGGLVQAGGSLRLSCAASGSITRYYDMGWYRQAPGKEREFVAGISGGAITYYADSVKGRFTISRDNAKNTVYLQMNSLKPEDTAVYYCAADTGVYQYHSYWGQGTQVTVSS | low polyreactivity
